Measurements taken from patent US20220153853A1 (JIANGSU HENGRUI MEDICINE, published 2022).
Read-outs that look alike come from different tables or passages of the source.

Key:
[1] = target: T1, human GCGR (full-length glucagon receptor of 477 amino acids) (human, UniProt P47871 26-477); assay: cell-based or functional assay
[2] = target: T1, human GCGR (full-length glucagon …); assay: competitive cell ELISA on GCGR-overexpressing CHO cells, biotin-labeled against unlabeled antibody; competitor ch1808
From the text: (§1) The GCGR epitopes bound by GCGR antibodies were classified by ELISA assay, in which the competitive binding of the biotin-labeled antibodies with different concentrations of the standard antibody to GCGR-overexpressing CHO cells was detected. The method for preparing the cell plate was the same as that of Test Example 1. The following specific procedures are as follows: The antibody was labelled according to the biotin labeling kit instructions (Dojindo
(§2) Molecular Technologies, Inc. LK03). The unlabeled test antibody was diluted to a range of concentrations with sample dilution solution in a 96-well cell plate, 50 μl/well, and incubated at 37° C. for 2 hours. After the incubation was finished, the plate was washed 3 times with PBST, 50 μl/well of biotin-labeled antibody diluted with sample dilution solution was added, at a concentration of 0.1 μg/ml, incubated at 37° C. for 2 hours, the plate was washed 3 times with PBST, and HRP-labeled goat-anti-human secondary antibody (JacksoW ImmuWo Research, Cat Wo. 109-035-003) was added, and incubated at 37° C. for 1 hour. The plate was washed 3 times with PBST, 50 μl/well of TMB chromogenic substrate (KPL, Cat No. 52-00-03) was added, incubated at room temperature for 10 min, and 50 μl/well of 1M H₂SO₄ was added to stop the reaction. The absorbance value was read by a microplate reader (Thermo scientific Multiskan MK3) at a wavelength of 450 nm, and the data was analyzed with GraphPad Prism 5.

[3] = target: T1, human GCGR (full-length glucagon …); assay: competitive cell ELISA on GCGR-overexpressing CHO cells, biotin-labeled against unlabeled antibody; competitor hu1810-12
From the text: as §1, §2

[4] = target: T1, human GCGR (full-length glucagon …); assay: cell-based or functional assay; remark: listed apart in the source
Mouse GCGR [5] = target: T2, Mouse GCGR (mouse, UniProt Q61606 27-485); assay: cell-based or functional assay
T2 sequence (Q61606 27-485): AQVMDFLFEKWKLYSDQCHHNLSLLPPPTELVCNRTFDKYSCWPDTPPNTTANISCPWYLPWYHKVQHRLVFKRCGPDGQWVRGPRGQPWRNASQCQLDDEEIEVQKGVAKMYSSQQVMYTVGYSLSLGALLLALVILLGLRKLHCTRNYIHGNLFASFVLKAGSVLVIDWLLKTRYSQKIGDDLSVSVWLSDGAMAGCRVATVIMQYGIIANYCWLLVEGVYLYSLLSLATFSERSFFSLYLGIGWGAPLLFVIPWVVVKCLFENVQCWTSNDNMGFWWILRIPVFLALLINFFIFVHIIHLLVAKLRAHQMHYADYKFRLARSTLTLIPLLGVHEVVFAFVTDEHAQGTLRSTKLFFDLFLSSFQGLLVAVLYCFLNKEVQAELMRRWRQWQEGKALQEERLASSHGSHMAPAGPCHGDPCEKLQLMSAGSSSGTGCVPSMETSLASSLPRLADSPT

Cynomolgus monkey GCGR [6] = target: Cynomolgus monkey GCGR (cynomolgus monkey); assay: cell-based or functional assay
[7] = target: T1, human GCGR (full-length glucagon …); assay: competitive cell ELISA on GCGR-overexpressing CHO cells, biotin-labeled against unlabeled antibody; competitor hu1803-9
From the text: as §1, §2

[8] = target: T1, human GCGR (full-length glucagon …); assay: cell ELISA on fixed CHO cells overexpressing GCGR
Method: (§3) The expression levels of GCGR were detected after two weeks of pressure screening, After the GCGR-overexpressing cells were fixed to the bottom of 96-well plate, the antibodies were added and the signal strength was used to determine the binding activity of the antibody to GCGR overexpressing CHO cells. The binding abilities of the antibody to the three species of GCGRs were detected with the same binding assay. As an example, the binding of the GCGR antibodies to human GCGR was detected by an assay specifically described as follows:
(§4) The cells were seeded in a 96-well plate at a density of 0.9-1.0×10⁶/ml, 100 μl/well and cultured overnight. The supernatant was discarded, the plate was washed three times with PBS, 100 μl/well of cell immune fixed solution (Beyotime, Cat No. P0098) was added and fixed for an hour at room temperature, and washed four times with PBS. The liquid was discarded, 200 μl/well blocking solution (5% skim milk (BD skim milk, Cat Wo. 232100) diluted with PBS) was added, and incubated in an incubator at 37° C. for 3 hours for blocking. After the blocking was finished, the blocking solution was discarded, the plate was washed 3 times with PBST buffer (PBS comprising 0.05% tweenW-20, pH7.4), 50 μl/well of various concentrations of each of the test antibodies (antibodies purified from hybridoma, chimeric antibodies or humanized antibodies) diluted with sample dilution solution were added, and incubated in an incubator at 37° C. for 2 hours. After the incubation was finished, the plate was washed 3 times with PBST, 50 μl/well of HRP-labeled goat anti-mouse secondary antibody (JacksoW ImmuWo Research, Cat No. 115-035-003) or goat anti-human secondary antibody (JacksoW ImmuWo Research, Cat Wo. 109-035-003) diluted with sample dilution solution was added, and incubated at 37° C. for 1 hour. The plate was washed 3 times with PBST, 50 μl/well of TMB chromogenic substrate (KPL, Cat Wo. 52-00-03) was added, incubated at room temperature for 10 min, and 50 μl/well of 1M H₂SO4 was added to stop the reaction. The absorbance value was read by a microplate reader (Thermo scientific Multiskan MK3) at a wavelength of 450 nm, and the data was analyzed with GraphPad Prism 5. The binding of GCGR chimeric antibodies to GCGR-overepressing CHO cells was calculated as EC50 value.

Mouse GCGR [9] = target: T2, Mouse GCGR; assay: cell ELISA on fixed CHO cells overexpressing GCGR
Method: as §3, §4

Cynomolgus monkey GCGR [10] = target: T3, Cynomolgus monkey GCGR (cynomolgus monkey); assay: cell ELISA on fixed CHO cells overexpressing GCGR
T3 construct: whole, on cells; also called cynomolgus GCGR
Method: as §3, §4

[11] = target: T1, human GCGR (full-length glucagon …); assay: cell-based or functional assay; remark: listed apart in the source
Mouse GCGR [12] = target: T2, Mouse GCGR; assay: cell-based or functional assay; remark: listed apart in the source

T1 sequence (P47871 26-477 limits assumed): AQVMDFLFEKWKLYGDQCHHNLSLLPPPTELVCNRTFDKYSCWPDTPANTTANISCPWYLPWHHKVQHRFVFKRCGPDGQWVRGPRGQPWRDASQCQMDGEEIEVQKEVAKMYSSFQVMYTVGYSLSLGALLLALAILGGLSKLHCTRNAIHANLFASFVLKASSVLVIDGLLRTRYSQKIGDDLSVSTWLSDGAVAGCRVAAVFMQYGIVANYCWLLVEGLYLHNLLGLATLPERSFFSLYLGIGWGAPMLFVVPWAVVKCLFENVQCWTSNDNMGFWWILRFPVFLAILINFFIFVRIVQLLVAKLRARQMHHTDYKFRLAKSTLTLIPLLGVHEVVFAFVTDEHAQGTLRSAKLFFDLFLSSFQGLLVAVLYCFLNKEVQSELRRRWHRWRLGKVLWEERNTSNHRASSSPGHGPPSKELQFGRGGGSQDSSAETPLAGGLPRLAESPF

Row | Binder | IC50 [1] [nM] | Imax [1] [%] | competition efficiency IC % [2] [%] | competition efficiency IC % [3] [%] | IC50 [4] [nM] | Imax (%) [4] [%] | IC50 (Mouse GCGR [5]) [nM] | Imax (%) (Mouse GCGR [5]) | IC50 (Cynomolgus monkey GCGR [6]) [nM] | Imax (%) (Cynomolgus monkey GCGR [6]) | competition efficiency IC % [7] [%] | EC50 [8] [nM] | EC50 (Mouse GCGR [9]) [nM] | EC50 (Cynomolgus monkey GCGR [10]) [nM] | IC50 [11] [nM] | Imax [11] [%] | IC50 (Mouse GCGR [12]) [nM] | Imax (%) (Mouse GCGR [12])
1 | ch1805 (antibody, human IgG4 S228P, kappa, F234A L235A, V domains shown, IgG4-AA / kappa chimeric antibody; also called chimeric antibody of clone 1805) VH: EVQLQQSGPELVKPGASVKIPCKTSGYTFTDYNMDWVKQSHGRSLEWIGSIDPDNGGTIYNQKFKGKATLTVDKSSSTAYMELRSLTSEDTAVYYCTRDYYGSSSWFAYWGQGTLVTVSA VL: DVVMTQSPATLSVTPGDRVSLSCRASQSISDYLHWYQQKSHESPRLLIKYASQSISGIPSRFSGSGSGSDFTLSINSVEPEDVGVYYCQNGHSFPYTFGGGTKLEIKR | – | – | 100 | 100 | – | – | – | – | – | – | 100 | 0.297 | 0.343 | 0.358 | 95 | 91 | 18 | 100
2 | ch1808 (antibody, human IgG4 S228P, kappa, F234A L235A, V domains shown, IgG4-AA / kappa chimeric antibody) VH: QVQLQQSGAELARPGASVKLSCKASGDTFTTNGISWVKQRIGQGLEWIGEIYPRSGNTYYNENFKGKATLTADKSSTTAYMELRRLTSEDSAVYFCARSITSVIGADYFDYWGQGTTLTVSS VL: DIQMTQTTSSLSASLGDRVTISCRASQDISNYLNWYQKKPDGTVKLLIYYSSTLHSGVPSRFSGSGSGTDYSLTISNLEQEDIATYFCQQGNTFPWTFGGGTKLEIKR | – | – | 100 | 54.3 | – | – | – | – | – | – | 46.6 | 0.677 | 1.02 | 0.536 | 105 | 98 | 26.6 | 100

Next, values leading:

Row | IC50 [1] [nM] | Imax [1] [%] | competition efficiency IC % [2] [%] | competition efficiency IC % [3] [%] | IC50 [4] [nM] | Imax (%) [4] [%] | IC50 (Mouse GCGR [5]) [nM] | Imax (%) (Mouse GCGR [5]) | IC50 (Cynomolgus monkey GCGR [6]) [nM] | Imax (%) (Cynomolgus monkey GCGR [6]) | competition efficiency IC % [7] [%] | EC50 [8] [nM] | EC50 (Mouse GCGR [9]) [nM] | EC50 (Cynomolgus monkey GCGR [10]) [nM] | IC50 [11] [nM] | Imax [11] [%] | IC50 (Mouse GCGR [12]) [nM] | Imax (%) (Mouse GCGR [12]) | Binder
3 | 78.4 | 100 | 100 | 100 | 54 | 100 | 11.2 | 100 | 220 | 100 | 100 | – | – | – | – | – | – | – | hu1803-9 (antibody, human IgG4 S228P, kappa, F234A L235A, V domains shown, IgG4-AA / kappa humanized antibody; also called hu1803_VH.1 + hu1803_VL.1B; GCGR monoclonal antibody) VH: EVQLVQSGAEVKKPGASVKVSCKASGYTFTDYWIEWVRQAPGQGLEWMGEILPGSTYTNYNEKFKGRVTMTRDTSTSTVYMELSSLRSEDTAVYYCARGLSTLMAVDYFDYWGQGTTVTVSS VL: DIQMTQSPSSLSASVGDRVTITCRASQDISNYLNWYQQKPGKAVKLLIYYSSTLHSGVPSRFSGSGSGTDYTLTISSLQPEDFATYYCQQTNIFPWTFGGGTKVEIKR
4 | 75.9 | 99.7 | 100 | 100 | – | – | 17.5 | 97 | 886 | 99 | 100 | – | – | – | – | – | – | – | hu1810-12 (antibody, human IgG4 S228P, kappa, F234A L235A, V domains shown, IgG4-AA / kappa humanized antibody; also called hu1810_VH.1C + hu1810_VL.1B) VH: QVQLVQSGAEVKKPGSSVKVSCKASGGTFSNYAISWVKQAPGQGLEWIGEIYPTSGNTYYNEKFKGKATLTADRSTSTMYMELSSLRSEDTAVYYCASGVITTVVSTDYFDYWGQGTLVTVSS VL: DIQMTQSPSSLSASVGDRVTITCRASLDISNYLNWYQLKPGKAVKLLIYYTSTLHSGVSSRFSGSGSGTEYTLTISSLQPEDFATYYCQQGNMVPYTFGGGTKVEIKR
